# Assay: yeast display, Sf9 membrane polyspecificity reagent, FACS + sequencing; frameworks hold sequencing errors
# Procedure, shortened: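 Galactose induction of a Saccharomyces cerevisiae BJ5465 synthetic nanobody display library ran 36–48 hours. The cells were then stained for 1 hour at 4 °C with 10% biotinylated, detergent-solubilized Sf9 membrane reagent, pulled down on streptavidin microbeads and FACS-sorted into low and high (top ~1%) gates on expression and reagent-binding fluorescence. Labels for polyreactivity follow the gate of origin.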
row,Sequence,polyreactivity (PSR sort gate)
1,QVQLVESGGGIVQAGGSLRLSCAASGSIFRRNALGWYRQAPGKERELVAAISSIGSSTYYADSVKGRFTISRENAKNTVYFQMNSLKPEDTAVYYCAAVFYYATYSKKFEYWGQGTQVTVSS,high polyreactivity
2,QVQLVESGGGIVQAGGSLRLSCAASGSIFVTNTMVWYRQAPGKERELVAAISYRGGSTYADSVKGRFTISRDNAKNTVYLQMNSLKPEDTAVYYCAADDLSFVGYYYGYVDDVYCGQGTQVTVSS,high polyreactivity
3,QVQLVESGGGIVQAGGSLRLSCAASGSIFYAYAMGWYRQAPGKERELVAAINRGDSTTYADSVKGRITISRDNAKNTVYLQMNSLKPEDTAVYYCAKSRPSRKYYAGVTGQGDYWGQGTQVTVSS,low polyreactivity
4,QVQLVESGGGIVQAGGSLRLSCAASGSILSYYAMGGYRQAPGNEREFVAAISWGTITNYADSVKGRFTISRDNAKKTVYLQMNSLKPEDTAVYYCNADPYGWYSSDYDYWGQGTQVTVSS,low polyreactivity
5,QVQLVESGGGIVQAGGSLRLSCAASGSILYPYAMGWYRQAPGKERELVAAISRGGSTNYADSVKGRFTISRDNAKNTVYLQMNSLKPEDTAVYYCATAYTRFSQRYEYYVIYWQNDYWGQGTQVTVSS,low polyreactivity
6,QVQLVESGGGIVQAGGSLRLSCAASGSNLQYKAMGWYRQAPGKERELVADITSSGGSTYYADSVKGRFTISRDNAKNTVYLQMNSLKPEDTAVYYFAKDTHWAYYWGQGTQVTVSS,low polyreactivity
7,QVQLVESGGGIVQAGGSLRLSCAASGSSHGYAMGWYRQAPGKERELVAAISLNTGSTYYADSVNGRFTISRDNAKNTVYLQMNSLKPEDTAVYFCNADDYTYATYEYDYWGQGTQVTVSS,low polyreactivity
8,QVQLVESGGGIVQAGGSLRLSCAASGSTFETNAMGRDRQAPGKERELVAAIRWSTGNTYYADSVNGRFTISRDNAKNTVYLQMNSLITEDTAVYYCAAYKAKHYKDGYWGQGTQVSVSS,low polyreactivity
9,QVQLVESGGGIVQAGGSLRLSCAASGSTFRYYARGWSRQAPGKERELVATITCNAAGTYYADSVKGRFTISRDNAKNTVYLQMNSLKPEDTAVYYCAAAPWEWYHYGYYYWGQGTQVTVSS,low polyreactivity
10,QVQLVESGGGIVQAGGSLRLSCAASGSTFSYYDMGWYRQAPGKERELVAAISWNGGTTYYADSVKGRFTISRDNAKNTVYLQMNSLKPEDTAVYYCAATWDFYWAPYDSWGQGTQVTVSS,low polyreactivity
11,QVQLVESGGGIVQAGGSLRLSCAASGSTFVTHAMGCYRQAPGKEREFVAAISWNSTSTYFADSVKGRFTISRDHAKNTVYLQMNSLKPEDTAVYYCNATTFAFSPSLKGAYGYWGQGTQVTVSS,low polyreactivity
12,QVQLVESGGGIVQAGGSLRLSCAASGSTFYVYAMGWYRQAPGKERELVAAITVRGGSTYYADSVKGRFTISRDNAKNTVYLQMNSLKPEDTSVDYCNAEGTYGYWRSYNYWGQGTQVTVSS,high polyreactivity
13,QVQLVESGGGIVQAGGSLRLSCAASGSTIGYYAMGWSRQAPGKERELVAAISRRGGSTYYADSVKGRFTISRDNAKNTVYLQMTSLKPEDTAVYYCAADRRIGDGENYYWGQGTQVTVSS,high polyreactivity
14,QVQLVESGGGIVQAGGSLRLSCAASGYTFGTYAMGWYRQAPGKERELVAAITSTGGRTYYADSVKGRFTISRDNAKNTVYLQMNSLKPEDTAVYYCAAERVYRTIWHYPYYYWGQGTQVTVSS,high polyreactivity
15,QVQLVESGGGIVQAGGSLRLSCAASYYDMGWYRQAPGKERELVASISSGGSTNYADSVKGRFTISRDNAKNTVYLQMNSLKPEDTAVYYCAADVADGVWVKIADEYWGQGTQVTVSS,low polyreactivity
16,QVQLVESGGGIVQAGGSLRLSCASSGRTFFWYAMVWYRQAPGKERELVAAITYRGGGTYYADSVKGRFTISRDNAKNTVYLQMNSLKPEDTAVYYCAAEYWVGVYLYDYWGQGTQVTVSS,high polyreactivity
17,QVQLVESGGGIVQAGGSLRLSCDASGNTFKGYAMGWYRQAPGTESELVAAISWSGSSTYYADSLKGRFTISRDNAKNTVYFQLNSLKQEDPAVFSCNRKYLGRYASVYGYGYWGQGTQVTVSS,high polyreactivity
18,QVQLVESGGGIVQAGGSLRLSCSASGSIFPLDGMGSYRQAPGKERELVAAISIGGRTNYADSVKGRFTISRDNAKNTVYLQMTSLKPEDTAVYYCNAVSKFVYRNRILWYDYWGQGTQVTVSS,high polyreactivity
19,QVQLVESGGGIVQAGGSLRLSGAASGFTLTSYAMGWYRQPHGNERELVAGISRGGITYYADSVKGRFTISSDNAKNTVYLQMNSLKPEDTAVYYCATEASFYDPDMYPYGYDYWGQGTQVTVSS,high polyreactivity
20,QVQLVESGGGIVQAGGSLRLSSAASGFIFARYAMGWYRQAPGKERELVAAISSGGRTYYADSVKGRFTISRDNAKNTVYLQMNSLKPEDTAVYYCAADPASSYGKYSYYYWGQGTQVTVSS,high polyreactivity
21,QVQLVESGGGIVQAGGSLRLSSAASGFTFYKYVMGWYRQSPGKERELVAAISYSSGSTYYADSVKGRFTISRDNAKNTVYLKMNSLKPDDTAVYYCAADSTYYGYAYYYWGQGSQVTVSS,high polyreactivity
22,QVQLVESGGGIVQAGGSLRLSSAASGSTFYTKSIGWYIQAPGKERELVAAISGSGGSTYYADSVKGRFTISRDTAKNTVYLQMISLKPEDTAVYSCAARSRYYDTRFDYWGQGTQVTVSS,low polyreactivity

row,Sequence,polyreactivity (PSR sort gate)
1,QVQLVESGGGIVQAGGSLRLSWAASGSIFDKYAMGWYRQAHGKERELVAAIDSGDTYYADSVKGRFTISRDNAKNPVYFQMNSLKPEDTAVYYWAADDVQYEYDYWGQGTQVSVSS,low polyreactivity
2,QVQLVESGGGIVQAGGSLRLTCAASGFTFFYNAMGWYRQAPGKERELVAAITTNGGSTYYADSVKGRFTISRDNANNTVYLQMNSLKTEDTAVYYFAAEYGITEYDYWGQGTQVTVSS,low polyreactivity
3,QVQLVESGGGIVQAGGSLRVSCAASGSIFLDNAMGWYRQAPGKERELVADISYSGGSTYYADSVKGRFTISRDNAKNTVYLQMNSLKPEDTAVYYCAAGVQLTVPPLRSSVTEYDYWGQGTQVTVSS,low polyreactivity
4,QVQLVESGGGIVQAGGSLRVSCVSSGRTCSRYAMGWSRQAPGKDRELVAAISRRGGSTYYADSVKGRFTISRDNAKNTVYLQMKSLKREDTAVYYCAAGYITWGSGNWVVTPYDYWGQGSQVTVSS,high polyreactivity
5,QVQLVESGGGIVQAGGSLSLSCAASGYNFTQNAMGGYRQAPGKERELVASITSGGSTDYADSVKGRFTISRDNAKNTVYLQMNSLKPEDTAVYYCAAEFHFWGYLYDYWGQGTQVTVSS,low polyreactivity
6,QVQLVESGGGIVQAGGSLSLTWAASGSTFAYYAMGRYRQAPGKERELVAAISSSGGRTYYADSVKWRFTISRDNAKNTVYLQMIMLKPEDSAVYYCWGQATQVTVSS,low polyreactivity
7,QVQLVESGGGIVQAGGTLRLSCAASGSTFKNKAMGCNRHAPGKETEFVAGITRRGTSTYYADSVKGRFTISLDNAKNSVYLQMNSLKPEDTSVYYCAARAWYPSRYDYWGQGTLVTVSS,high polyreactivity
8,QVQLVESGGGIVQARGSLRLTSAASGITFQYYTMGWYRQAPGKERELVAGISDSDGDTYYADSVKGRFTISRDNAKKTVFLQMNSLKPEDTALYYCAADGYAYYRATTRFDYWGQGTQVTLSS,high polyreactivity
9,QVQLVESGGGIVQAVGSLRLSCAASGFTFFYYAMGWYRQAPGKERELVATISWNGGTTYYADSVKGRFTISRDNAKNTVYLQMNSLKPEDTAVYYCNARYDWTYLYDAGLVPGWDYDYWGQGTQLTVSS,low polyreactivity
10,QVQLVESGGGIVQSGGSLRLSFAASGSIVDWNAMGWYRQAPGKARELVASISSGGSTDYADSVKGRFTISRDNAKNTVYLQMNSLKPEDTAVYYCNADAYAYYPPRWYYGYDYWGQGTQVTVSS,low polyreactivity
11,QVQLVESGGGIYKAGGSLRLSCAASGSIIKINTLGRYRQAPRKERELVAAISTRGGSTYYADSVKGRFTISRDNSKNTVYLQMNSLKPDDTAVYFCAARQFYKYYYWGQGTQVTVSS,high polyreactivity
12,QVQLVESGGGKVQEGGSLRISCAASGSIFITYAMGWYRQAPGKERELVAAIRDSGDRTYYADSVKGRFTISRDNAKNTVYFQMNSLKPEDTAVYYCNARCQEPLKYDYWGQGTQVIVSS,low polyreactivity
13,QVQLVESGGGLAQAGGSLRLSCAASGSTFLYYAMGWYRQAPGKERELVDAIDSGGSTYYADSVKGRFTISRDNAKNTVYLQMNSLKPEDTAVYYCNADFADHWPPNGPGAHDYWGQGTQVTVSS,low polyreactivity
14,QVQLVESGGGLDQAGASLRLSCAASGRIYVVNAMGWYREAPGKEMELVATNTRSGGITFYPDSVKGRFTISRDNAKNTVYLQMNSLNPEVTAVYYCNADVLFYTYYTRGRFDFDYWGQGTQVTVSS,low polyreactivity
15,QVQLVESGGGLDQAGASLRLSCAASGSIFVPYTMGWYRQAPGKERELVASISYSGGTTYYADSVKGRFTISRDNAKYTVYLQMNSLKPEDTAVYYCAADWDDSYSYRRYRHYDYWGQGTQVTVSS,low polyreactivity
16,QVQLVESGGGLDQAGGRLRLICAASGRTFTTYAMGWNRQAPGKERELVASISRRGGSTYYADSVKGRFTISRDNAKNTVYLQMTSLKPEDTAVYYCAAKTGTYRGRQVYTYGYWGQGTQVTVSS,high polyreactivity
17,QVQLVESGGGLDQAGGRLRLSCAASGIIFPIYAMRLYRQAPGKERELVAGISTGGGGTYYADSVKGRFTISRDNAKNTVYLQMNSLKPEDSAVYYCSTSGPLYYSRNFDYWGQGTQVTVSS,low polyreactivity
18,QVQLVESGGGLDQAGGRLRLSCAASGSTFSYYAKSWYIQAPGKERELVARITWRGGSTNYADSVKGRFTISRDNAKNTVYLQMNSLKPEDTAVYYCATKLTSRVPFDYWGQGTQVTVSS,high polyreactivity
19,QVQLVESGGGLDQAGGSHRLSCAASGSNLSGYAMVWYRQAPGKERELVADISWTGGSTYYADSVKGRLTISRDNAKNTVYLQMISLKPEVTAVYYCATRSGYRRSRVIYYHDDYGYWGQGTQVTVSS,high polyreactivity
20,QVQLVESGGGLDQAGGSLGLSCAPSGRTFFPYAMGWSRQAPGKEREFVAAITKTDDSTYYADSVKGRFTISRDKAKNTVYLPMNSLKPEDTAVYYCIAGDTQIRFYYWGQGTQVTVSS,low polyreactivity
21,QVQLVESGGGLDQAGGSLPLSCAASGNTFYPNAMGWYRQAPGKERELVAAITTSGGTTYYADSVKGRFTISRDNANYTVYLQMNSLKPEDTAVYYCAAYWSRDKYDYWGQGTQVTVSS,low polyreactivity

# — the nanobody polyreactivity screen of Harvey et al. (2022)
